Data as given in the nanobody polyreactivity screen of Harvey et al. (2022).

Experiment: yeast display, Sf9 membrane polyspecificity reagent, FACS + sequencing; frameworks hold sequencing errors
Outline: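 Nanobodies from a synthetic yeast display library (Saccharomyces cerevisiae BJ5465), induced 36–48 hours with galactose, were stained 1 hour at 4 °C with 10% biotinylated, detergent-solubilized Sf9 membrane reagent, enriched on streptavidin microbeads, then FACS-sorted. Anti-HA (expression) and streptavidin (reagent binding) fluorescence set low and high (top ~1%) gates. Polyreactivity labels come from the gate of origin. Genes were colony-PCR amplified, MiSeq 2 × 250 sequenced and filtered by CDR length.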

## QVQLVESGGGLVQAGGSLRLSCAASGSIFGVYAMGWYRQAPGKERELVATISRSGAITYYADSVKGRFTISRDNAKNTVYLQMNSLKPEDTAVYYCAADFFSRDWGQGTQVTVSS
  polyreactivity (PSR sort gate): low polyreactivity

## QVQLVESGGGLVQAGGSLRLSCAASGITFRRYTMGWYRQAPGKERELVAAITSRGSSTYYADSVKGRFTISRDNAKNTVYLQMNSLKPEDTAVYYCAAQYRQRRHDYWGQGTQVTVSS
  polyreactivity (PSR sort gate): high polyreactivity

## QVQLVESGGGLVQAGGSLRLSCAASGSIFYRYAMGWYRQAPGKERELVAAISTAGSTNYADSVKGRFTISRDNAKNTVYLQINSPKPEDTAVYYCAAKSYRGRTQRSYGYWGQGTQVTVSS
  polyreactivity (PSR sort gate): low polyreactivity

## QVQLVESGGGLVQAGGSLRLSCAASGFTFKYYAMGWYRQAPGKERELVAAISRGGSTYYADSVKGRFTFSRDNAKNTVYLQMNSLKPEDTAVYYCAARYVRVGYDYWGQGTQVTVSS
  polyreactivity (PSR sort gate): high polyreactivity

## QVQLVESGGGLVEAGGSLRLSGAASGRSFGIYAMGWYRQAPGKERELVAAITWSGDSTYYADSVKGRFTISRDNAKKTVYLQMNILKPEDTAVYYCAADDVGVTSVRYDYWGQGTLVTVSS
  polyreactivity (PSR sort gate): low polyreactivity

## QVQLVESGGGLVQAGGSLRLSCAASGYIFYDYVMGWYRQAPGKEREVVAAISSGGNTNYADSVKGRFTISRDNAKNTVYLQMNSLKPEDTAVYYCAADRWGARRKQYHENGYWGQGTQVTVSS
  polyreactivity (PSR sort gate): high polyreactivity

## QVQLQVSGGDLLQAGGSLRLSCAASGTIYGHTSMGWYRQAPGKEREFVAAITDGGNTNYADSVKGRFTISRDNAINTVYLQMISLKPEDTAVYYCEVLFSDVAYYAYWGQGTQVTVSS
  polyreactivity (PSR sort gate): low polyreactivity

## QVQLVESGGGLVQAGGSLRLSCAASGGTFPWYTMGWYRQAPGKERELFAAISWRGGRTYYADSVKGRFTISRDNAKNTVYLQMNSLKPEDTAVYYCAATPRYRVYYGSYYLRYDYWGQGTQVTVSS
  polyreactivity (PSR sort gate): high polyreactivity

## QVHLEESGGGLVQAGGSLRLSCAASGIIFHFNDRGWYRQATGKERELVAAITSGGSTNYADSVKGRFTISRDNAKNTVYLQMNSLKPEDTAVYYCAARRCLRLFAYRHGYWGQGTQVTVSS
  polyreactivity (PSR sort gate): low polyreactivity

## QVQLVESGGGLVQAGGSLRLSCAASGSNFYDNAMGWYRQAPGKERELLAAITTSGDSTYYADSVKGPFTISRDNAKNTVYLQMNSLKPEDTAVYYCAARPRVRSSYRYYYWGQGTQVTVSS
  polyreactivity (PSR sort gate): high polyreactivity

## QVQRVESGGGLVQAGGSLRLSCAASGRTLARNAMGWYRQAPGKERELVASINGRTTRTYYADSVKGRFTISRDNAKNTVYLQMNSLKPEDTAVYYCAVKDRYSFRYDYWGQGTQVTVSS
  polyreactivity (PSR sort gate): high polyreactivity

## QVQLVESGGGLVQAGGSLRLSCAASGFIFQYYAMGWYRQAPGKERELVAAIRISGGSTYYADSVKGRFTSSRDNAKNTVYLQMNSLKPEDTAVYYCAARQIITKFYTSNGVSSYYWGQGTQVTVSS
  polyreactivity (PSR sort gate): high polyreactivity

## QGQLEESVGGLVQAGGSLRLSCAASGRIFRYYAMGLYRQAPGKERELVAAIRSGGSTNYADSVKGRFTISRDNAKNTVYLQMKSLKPEDTAVYYCNARYRYFKGGYWGQGTQVTVSS
  polyreactivity (PSR sort gate): high polyreactivity

## QVQLVESGGGLVQAGGSLRLSCAASGRTFWLYAMGWYRQATGKERELVAGISRGGRTYYADSVKGRFTISRDNAKNTVYLQMNSLKPEDTAVYYGAADRYTVRMDCWGQGTQVTVSS
  polyreactivity (PSR sort gate): high polyreactivity

## QVQIEESGGGLVQERGSLRLSCAAYGRIFDLYAMGWNRQAPGKERELVATISGSGGSTYYADSVKGRFTISRDTAKNTVYLQMNSLKPEDTAVYNCAAVSVSSWYDYWGQGTQVTVSS
  polyreactivity (PSR sort gate): low polyreactivity

## QVQLVESGGGLVQAGGSLRLSCAASGTIFDYNAMGWYRQAPGKERELVAAISWRGGTTYYADSVKGRFTISRDNAKNTVYLQMNSLKPEDTAVYYCAAGRRGVYHGGYWGQGTQVTVSS
  polyreactivity (PSR sort gate): high polyreactivity

## QVQLVESGGGLVQAGGSLRLSCAASGITFYIYAMGWYRQAPGKEREFVAAISDDGSTHYADSVKGRFTISRDNAKNTVYLQLNSLKPEDTAVYYCNADYYWFFDFFDYDYWGQGTQVTVSS
  polyreactivity (PSR sort gate): low polyreactivity

## QVQLVESAGGLVQAGGSLSLSCAASGINFAWYVMGWYRQEPGKERELVAAITQSGGSTFYADSVKGRFTISRDNAKNTVYLQMNSLKPEDTAVYYCAAESRSTWIHSRDYWGQGTQVTVSS
  polyreactivity (PSR sort gate): low polyreactivity

## QVQLVESGGGLVQAGVSLRLSCAASGFILGYNAMGWYRQAPAKERELVAAITRGGSTYYADSVKGRFTISRDNSKNTVYLQMNSLKPEDTAVYYCAAAYRGYSSTLWLGHWGQGTQVTVSS
  polyreactivity (PSR sort gate): high polyreactivity

## QVQLVESGGGLVQAGGSLRLSCAASGSILFYNTMGWYRQAPGKERELVASITSGGSTKYADSVKGRFTISRDNAKNTVYLQMNSLKPEDTAVYYCNADRRFYSIYRWHHYYWGQGTQVTVSS
  polyreactivity (PSR sort gate): low polyreactivity

## QVQLVESGGGLVQAGGSLRLSCAASGSIYYNAMGWYRQAPGKERELVASISTGDSTDYADSVKGRFTISRDNAKNTFYLQMNSLKPEDTAVYYCAADTRLGYWDDYWGQGTQVTVSS
  polyreactivity (PSR sort gate): low polyreactivity

## QVQLVESGGGLVQAGGSLRLSCAASGSTFPYYDMGWYRQAPGKERELVAAISWSGDSTYYADSVKGRFTISRDNAKNTVYLQMNRLKPEDTAVYYCAAYSDYWSYLSTDDYWGQGTQVTVSS
  polyreactivity (PSR sort gate): low polyreactivity

## QVQLVESGGGLVQAGGSLSLSCAASGIIFGLYTMGWYRQAPGKERELVAAISDSGGRTYYADSVKGRFTISRDNAKNTVYLQMNSLKPEETAVYYCAAEFWYVWEYNYWGQCTQVTVSS
  polyreactivity (PSR sort gate): high polyreactivity

## QFQLVESGGGLVQAGGSLRLSCAASGTFYPYAMGWYRQAPGKERELVAGITGSGGYTYFADSVKGRFTISRDNAKNTVYLQMNSLKPEDTAVYYCAKRSWIEYDYWGQGTQVTVSS
  polyreactivity (PSR sort gate): low polyreactivity

## QVQLVESGGGLVQAGGSLRLSCAASGITYTSYAMGWYRQAPGKERELVAAISSSGGSTYYADSVKGRFTISRDNAKNTVYLQMNSLKPEDTAVYYCIARPRSRSPRVEYDYWGQGTQVTVSS
  polyreactivity (PSR sort gate): high polyreactivity

## QVQLVESGGGLVQAGGSLRLSCAASGLTLVTYAMGWYRQAPGNERELVAAINSGGSTNYADSVKGRFTISRDNAKNTVYLQMNSLKPEDTAVYYCNADRVSPATYDYWGQGTQVTVSS
  polyreactivity (PSR sort gate): low polyreactivity

## QVQLVESGGGLVQAGGSLRLSCAASGSIFYGYAMGWYRQAPGKERELVAAITSGGRTYYADSVKGRFTISRDNAKNTVYLQMNSLKPEDTAVYYCNKLNYWSVRYEYWGQGTQVTVSS
  polyreactivity (PSR sort gate): high polyreactivity

## QVQLVESGGGIVQAGGSLRLSCAASGRTFKVNAMGWYIQAPGKEREFVAAITWNSGSSTYYADSVKGRFTISRDNAKNTVYLQMNSLKPEDTAVYYCAARSAGRYWNYYWGQGTQVTVSS
  polyreactivity (PSR sort gate): high polyreactivity

## QEQLVESGGGLVQAGGSLRLSCAASGFIFAPYAMGWYSQAPGKDRDLVAAISSSGGSTYYADSVKGRFTISRDNAKNTVYLQMNSLKPEDTAVFYCAARGNFGANPGRKHGFDYWGQGTQVTVSS
  polyreactivity (PSR sort gate): low polyreactivity

## QVQLVESGGGLVQAGGSLRLSCAASGFIFKFYAMGWYRQAHGKERELVAAISKSGGRTYYADSVKGRFTISRDNAKNTVYLQMNSLKPEDTAVYYCNAPSVGAAFDYWGQGTQVTVSS
  polyreactivity (PSR sort gate): high polyreactivity

## QVQLVESGGVLVQAGGSLRLSCDASGRIFKYNAMGWYRQAPGKERELVDVITSGVSTYYADSVKGRFTISRDNAKNTVYLQMNSLKPEDTAVYYCAKKYYKVHKFDYWCQGTQVTVSS
  polyreactivity (PSR sort gate): low polyreactivity

## QVQLVESGGGLVQAGGSLRLSCAASGSTFKYYAMGWYRQAPAKERELVAAISARTGSTYYADSVKGRFTISRDNAKNTVYLQMNRLKPEDTAVYYCNKLTWRGEVDYWGQGTQVTVSS
  polyreactivity (PSR sort gate): high polyreactivity

## QFQLVESGGGLVQAGGSLRISCAASGRIFYRYAMGWYRPAPGKERELVASIRFSVGSTYYADSVKGRFTISRDNAKNTVYLQMNSLKPEDTAVYYCAADYTKYYRRYYYWGQGTQVTVSS
  polyreactivity (PSR sort gate): high polyreactivity

## QVQLVESGGGLVHAGGSLRLSCAASGRTFWAYAMGWYRQAPGKERELVAAISASRGSTYYADSVKGRFTISRDTAKNTVYLEMNSLTAEDTAVYYCRLVSNGRLYDYWGQGTQATVSS
  polyreactivity (PSR sort gate): low polyreactivity

## QVQLVESGGGLVQAGGSLRLTCAASGRTFTLNAMGWYRQAPGKERELVADIRRRGGSTYYADSVKGRFTISRDNAKNTVYVQMNSRKAADTAVYYCATHGRWYKLPTGWRPYDYWGLGTQVTVSS
  polyreactivity (PSR sort gate): high polyreactivity

## QVQLVESGGGLVQAGGSLRLSCAASGITFYKYTMGWYRQAPGKERELVAAISVRGGRTYYADSVKGRFTISRDYAKNTVDLQMNSLKPEDTAVYYCAAGSQPGRKYYYWGQGTQVTVSS
  polyreactivity (PSR sort gate): high polyreactivity

## QVQLVESGGGLVQAGGSLRLSCAASGFTFWGNAMGWSRQAPVKERELVAAISRSGGRTYYADSVKGRFTISRDNAKNTVYLQMNSLKPEDTAVYYCDAGSSHHFDYEGGYWGQGTQVTVSS
  polyreactivity (PSR sort gate): low polyreactivity

## QVQLVESGGGLVQAGGSLRLSCAASGRTFRNAMGWYRQEPVKEREFVATITWSGGSTYYADSVKGRFTISRDNAKNTVYLQMNSLKPEDTAVYYCAAEGRLWDWQRYDYWGQGTQVTVSS
  polyreactivity (PSR sort gate): low polyreactivity

## QVQLVESGGGLVQAGGSLRLSCAASGRTFWWYAMGWYRQAPGKERELVADINGSGGSTYYADSVKGRFTISRDNAKHTVYLQMNSLKPEDTAVYYCAADYYRYIHSVVYSIYDYWGQGTQVTVSS
  polyreactivity (PSR sort gate): low polyreactivity

## QVQLVESGGGLVQAGGSLRLSCAASGSTLWSNTMGWYRQAPGKERELVDAISSGGGSTYADSVKGRFTISRDNAKNTVYLQMNSLKPEDTAVYYCAASAYYYRHSSWHRRDYWGQGTQVTVSS
  polyreactivity (PSR sort gate): high polyreactivity

## QVQLVDSGGGLVQAGGSLRLSCAASGNTFRYYVMGWYRQAPGKERELVAASTSSGGNTYYADSVKGRFTISRDNAKNTVYLQMNSLKPEDTAVYYCAASYDINYYFSDYNYWGQGTQVTVSS
  polyreactivity (PSR sort gate): high polyreactivity

## QVQLQESGGGLVQAGGSLRLSCEASGYISLAQTIGWYRQAPGKEREFVASIALGSSTYYTDSVKGSFTISRDKEKTTVYLQMNSLKPAETGVYYCAARVGASYAHDYWGQGTQVTVSS
  polyreactivity (PSR sort gate): low polyreactivity

## QVQLVETGVGLVQAGGSLRLSCAASGRIFKRNTMGWYRQAPGKEREFVASITFSGGSTNYADSVKGRFTISRDNAKNTVYLQMNSLKPEDTAVYYCAARDYHYSTYDYWGQGTQVTVSS
  polyreactivity (PSR sort gate): low polyreactivity
